From patent publication US20040018971A1

Experiments:
HLA-A*2401 (human) [1] = assay: inhibition of 125I probe peptide binding to purified HLA; IC50 standard/IC50 test
[2] = target: HLA-DR3 (DRB1*0301), purified HLA class II molecule (human); assay: competition with 125I-labelled probe peptide, purified HLA-DR
[3] = target: HLA-A*2401 (purified HLA class I molecule) (human); assay: competition with 125I-labelled standard peptide for purified HLA, gel filtration; conditions: scale: ratio
HLA-A*2401 (human) [4] = assay: as above
[5] = target: HLA-A*2401 (purified HLA class I molecule) (human); assay: competition with 125I-labelled probe peptide for purified HLA, gel filtration; conditions: scale: ratio

Substance	relative binding ratio (HLA-A*2401 (human) [1])	relative binding ratio (ratio (IC50 standard / IC50 test)) [2]	also measured
HER2/neu 172-181 (from UniProt P04626 172-181) (peptide)	0.0022		
HER2/neu 705-714 (from UniProt P04626 705-714) (peptide)	0.0002		
HER2/neu 705-715 (from UniProt P04626 705-715) (peptide)	-0.0003		
HER2/neu 780-790 (peptide)	0.032		
HER2/neu DR supermotif exemplary 15-mer … (position 8) (peptide)		0.001	
HER2/neu DR supermotif exemplary 15-mer … (position 666) (peptide)		0.0021	
HER2/neu DR supermotif exemplary 15-mer … (position 783) (peptide)		0.0062	
HER2/neu DR supermotif exemplary 15-mer … (position 912) (peptide)		0.001	
HER2/neu peptide, position 172, 10 amino acids			relative binding ratio [3]: 0.0022
HER2/neu peptide, position 780, 11 amino acids			relative binding ratio (IC50 of standard peptide / IC50 of test peptide) (ratio to standard peptide) (HLA-A*2401 (human) [4]): 0.032
HER2/neu peptide, position 952, 10 amino acids			relative binding ratio [5]: 0.0019
